From publication PMC5441850, “Waxy and non-waxy barley cultivars exhibit differences in the targeting and catalytic activity of GBSS1a” (Journal of Experimental Botany, 2017)

Substrate: Nc1ncnc2c1ncn2[C@@H]1O[C@H](COP(=O)(O)OP(=O)(O)O[C@H]2O[C@H](CO)[C@@H](O)[C@H](O)[C@H]2O)[C@@H](O)[C@H]1O
Assay: purified protein
Format: biochemical, Hordeum vulgare
Settings: rabbit liver glycogen 1 mg/ml as acceptor, 50 mM Bicine pH 8.5, 25 mM potassium acetate, 2 mM MgCl2, 10 mM DTT, 37 °C

Protein | Km [µM] | kcat [s⁻¹]
HvGBSSIa (Hordeum vulgare; D287V/I559V/M558V) (protein, initial 69 residues (plastid transit peptide) removed; codon-optimized, pET28a 6xHis tag; E. coli Tuner(DE3); HisTrap and Superdex75; mature size 59 kDa; CDC Alamo allele entry AF486519) SATGSGMNLVFVGAEMAPWSKTGGLGDVLGGLPPAMAANGHRVMVVSPRYDQYKDAWDTSVISEIKVADEYERVRFFHCYKRGVDRVFIDHPWFLEKVRGKTKEKIYGPDAGTDYEDNQQRFSLLCQAALEAPRILNLNNNPYFSGPYGEDVVFVCNDWHTGLLACYLKSNYQSNGIYRTAKVAFCIHNISYQGRFSFDDFAQLNLPDRFKSSFDFIVGYDKPVEGRKINWMKAGILQADKVLTVSPYYAEELISGEARGCELDNIMRLTGITGIVNGMDVSEWDPTKDKFLAVNYDITTALEAKALNKEALQAEVGLPVDRKVPLVAFIGRLEEQKGPDVMIAAIPEILKEEDVQIILLGTGKKKFEKLLKSMEEKFPGKVRAVVRFNAPLAHQMMAGADLLAVTSRFEPCGLIQLQGMRYGTPCVCASTGGLVDTIVEGKTGFHMGRLSVDCNVVEPADVKKVATTLKRAVKVVGTPAYQEMVKNCVVQDLSWKGPAKNWEDVLLELGVEGSEPGIVGEEIAPLAMENVAAP | 51 ± 10 | 0.00933 ± 0.0005
HvGBSSIa (Hordeum vulgare; D287V) (protein, initial 69 residues (plastid transit peptide) removed; codon-optimized, pET28a 6xHis tag; E. coli Tuner(DE3); HisTrap and Superdex75; mature size 59 kDa; CDC Alamo allele entry AF486519) SATGSGMNLVFVGAEMAPWSKTGGLGDVLGGLPPAMAANGHRVMVVSPRYDQYKDAWDTSVISEIKVADEYERVRFFHCYKRGVDRVFIDHPWFLEKVRGKTKEKIYGPDAGTDYEDNQQRFSLLCQAALEAPRILNLNNNPYFSGPYGEDVVFVCNDWHTGLLACYLKSNYQSNGIYRTAKVAFCIHNISYQGRFSFDDFAQLNLPDRFKSSFDFIVGYDKPVEGRKINWMKAGILQADKVLTVSPYYAEELISGEARGCELDNIMRLTGITGIVNGMDVSEWDPTKDKFLAVNYDITTALEAKALNKEALQAEVGLPVDRKVPLVAFIGRLEEQKGPDVMIAAIPEILKEEDVQIILLGTGKKKFEKLLKSMEEKFPGKVRAVVRFNAPLAHQMMAGADLLAVTSRFEPCGLIQLQGMRYGTPCVCASTGGLVDTIVEGKTGFHMGRLSVDCNVVEPADVKKVATTLKRAVKVVGTPAYQEMVKNCMIQDLSWKGPAKNWEDVLLELGVEGSEPGIVGEEIAPLAMENVAAP | 127 ± 9 | 0.046 ± 0.001
HvGBSSIa (Hordeum vulgare; M558V) (protein, initial 69 residues (plastid transit peptide) removed; codon-optimized, pET28a 6xHis tag; E. coli Tuner(DE3); HisTrap and Superdex75; mature size 59 kDa; CDC Alamo allele entry AF486519) SATGSGMNLVFVGAEMAPWSKTGGLGDVLGGLPPAMAANGHRVMVVSPRYDQYKDAWDTSVISEIKVADEYERVRFFHCYKRGVDRVFIDHPWFLEKVRGKTKEKIYGPDAGTDYEDNQQRFSLLCQAALEAPRILNLNNNPYFSGPYGEDVVFVCNDWHTGLLACYLKSNYQSNGIYRTAKVAFCIHNISYQGRFSFDDFAQLNLPDRFKSSFDFIDGYDKPVEGRKINWMKAGILQADKVLTVSPYYAEELISGEARGCELDNIMRLTGITGIVNGMDVSEWDPTKDKFLAVNYDITTALEAKALNKEALQAEVGLPVDRKVPLVAFIGRLEEQKGPDVMIAAIPEILKEEDVQIILLGTGKKKFEKLLKSMEEKFPGKVRAVVRFNAPLAHQMMAGADLLAVTSRFEPCGLIQLQGMRYGTPCVCASTGGLVDTIVEGKTGFHMGRLSVDCNVVEPADVKKVATTLKRAVKVVGTPAYQEMVKNCVIQDLSWKGPAKNWEDVLLELGVEGSEPGIVGEEIAPLAMENVAAP | 71 ± 7 | 0.353 ± 0.01
HvGBSSIa (Hordeum vulgare; I559V/M558V) (protein, initial 69 residues (plastid transit peptide) removed; codon-optimized, pET28a 6xHis tag; E. coli Tuner(DE3); HisTrap and Superdex75; mature size 59 kDa; CDC Alamo allele entry AF486519) SATGSGMNLVFVGAEMAPWSKTGGLGDVLGGLPPAMAANGHRVMVVSPRYDQYKDAWDTSVISEIKVADEYERVRFFHCYKRGVDRVFIDHPWFLEKVRGKTKEKIYGPDAGTDYEDNQQRFSLLCQAALEAPRILNLNNNPYFSGPYGEDVVFVCNDWHTGLLACYLKSNYQSNGIYRTAKVAFCIHNISYQGRFSFDDFAQLNLPDRFKSSFDFIDGYDKPVEGRKINWMKAGILQADKVLTVSPYYAEELISGEARGCELDNIMRLTGITGIVNGMDVSEWDPTKDKFLAVNYDITTALEAKALNKEALQAEVGLPVDRKVPLVAFIGRLEEQKGPDVMIAAIPEILKEEDVQIILLGTGKKKFEKLLKSMEEKFPGKVRAVVRFNAPLAHQMMAGADLLAVTSRFEPCGLIQLQGMRYGTPCVCASTGGLVDTIVEGKTGFHMGRLSVDCNVVEPADVKKVATTLKRAVKVVGTPAYQEMVKNCVVQDLSWKGPAKNWEDVLLELGVEGSEPGIVGEEIAPLAMENVAAP | 56 ± 8 | 0.0157 ± 0.00067
HvGBSSIa (Hordeum vulgare; I559V) (protein, initial 69 residues (plastid transit peptide) removed; codon-optimized, pET28a 6xHis tag; E. coli Tuner(DE3); HisTrap and Superdex75; mature size 59 kDa; CDC Alamo allele entry AF486519) SATGSGMNLVFVGAEMAPWSKTGGLGDVLGGLPPAMAANGHRVMVVSPRYDQYKDAWDTSVISEIKVADEYERVRFFHCYKRGVDRVFIDHPWFLEKVRGKTKEKIYGPDAGTDYEDNQQRFSLLCQAALEAPRILNLNNNPYFSGPYGEDVVFVCNDWHTGLLACYLKSNYQSNGIYRTAKVAFCIHNISYQGRFSFDDFAQLNLPDRFKSSFDFIDGYDKPVEGRKINWMKAGILQADKVLTVSPYYAEELISGEARGCELDNIMRLTGITGIVNGMDVSEWDPTKDKFLAVNYDITTALEAKALNKEALQAEVGLPVDRKVPLVAFIGRLEEQKGPDVMIAAIPEILKEEDVQIILLGTGKKKFEKLLKSMEEKFPGKVRAVVRFNAPLAHQMMAGADLLAVTSRFEPCGLIQLQGMRYGTPCVCASTGGLVDTIVEGKTGFHMGRLSVDCNVVEPADVKKVATTLKRAVKVVGTPAYQEMVKNCMVQDLSWKGPAKNWEDVLLELGVEGSEPGIVGEEIAPLAMENVAAP | 114 ± 15 | 0.112 ± 0.005
HvGBSSIa (Hordeum vulgare) (protein, initial 69 residues (plastid transit peptide) removed; codon-optimized, pET28a 6xHis tag; E. coli Tuner(DE3); HisTrap and Superdex75; mature size 59 kDa; CDC Alamo allele entry AF486519) SATGSGMNLVFVGAEMAPWSKTGGLGDVLGGLPPAMAANGHRVMVVSPRYDQYKDAWDTSVISEIKVADEYERVRFFHCYKRGVDRVFIDHPWFLEKVRGKTKEKIYGPDAGTDYEDNQQRFSLLCQAALEAPRILNLNNNPYFSGPYGEDVVFVCNDWHTGLLACYLKSNYQSNGIYRTAKVAFCIHNISYQGRFSFDDFAQLNLPDRFKSSFDFIDGYDKPVEGRKINWMKAGILQADKVLTVSPYYAEELISGEARGCELDNIMRLTGITGIVNGMDVSEWDPTKDKFLAVNYDITTALEAKALNKEALQAEVGLPVDRKVPLVAFIGRLEEQKGPDVMIAAIPEILKEEDVQIILLGTGKKKFEKLLKSMEEKFPGKVRAVVRFNAPLAHQMMAGADLLAVTSRFEPCGLIQLQGMRYGTPCVCASTGGLVDTIVEGKTGFHMGRLSVDCNVVEPADVKKVATTLKRAVKVVGTPAYQEMVKNCMIQDLSWKGPAKNWEDVLLELGVEGSEPGIVGEEIAPLAMENVAAP | 160 ± 15 | 0.0967 ± 0.0033
